The supplement of paper PMC9170038

Columns and labels:
MS2 coat protein [1] = assay: apparent KD of MS2 coat protein, switch OFF state (with FMN for OFF switches, without FMN for ON switches); designed switch direction (-1 OFF switch, 1 ON switch): -1; higher = weaker reporter binding; conditions: FMN input: 0 or 200 uM; Eterna round: R93 (includes R88 designs)
Outline: (§1)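 Normalised binding curves from single clusters were fitted, and the median fit for each design is given as apparent KD. The clusters held designed RNA switches transcribed on-chip from Illumina sequencing clusters. These were titrated with SNAP-549-labelled MS2 coat protein (twofold steps from 0.7 or 1.5 nM to 3 µM, 0.8–1.5 h to 10–20 min per step) in 100 mM Tris-HCl pH 7.5, 80 mM KCl, 4 mM MgCl2, without or with constant ligand.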

MS2 coat protein [2] = assay: apparent KD of MS2 coat protein, switch ON state; designed switch direction (-1 OFF switch, 1 ON switch): -1; higher = weaker reporter binding; conditions: FMN input: 0 or 200 uM; Eterna round: R93 (includes R88 designs)
Outline: as §1

Sequence | apparent KD of MS2 coat protein (MS2 coat protein [1]) [nM] | apparent KD of MS2 coat protein (MS2 coat protein [2]) [nM]
AAAUGAUGAGGAUAUACAUGAGGAUCACCCAUGUGUAAAAAUAAAUACACAAAAGAAAGUAGAAGGCAUCAAAG [Mat - Exclusion 3 - Mayanna mod - D119] | 88.6 | 27.8
AUCUACCUAGGAUAUACAUGAGGAUCACCCAUGUACAGUUUCAACUAGGGAAACUCACGUAGAAGGAGGUAGAU [JR_Exc003_Sub1209] | 25.2 | 48.2
AAAAAGUGAGGAUAUGGAAAAAAAAAAAAAAAAAAAAAAAACCAGAAGGCACAUGAGGAUCACCCAUGUAAAAA [low kcal] | 30.9 | 38.6
CCGAGGCGAGGAUAUAUGAAGGACACAACAUUUAGGGUAAGACAUGAGGAUCACCCAUGUAGAAGGCGCGACGC [Ex2_Neo] | 38.7 | 74.5
AAAAAACAUGAGGAUCACCCAUGUGAGGAUAUCUGUAUUCAAUCCUCGGAUUGAAUACAGAGAAGGCACAUGGG [Ex1: 609] | 14.2 | 13.9
AAAAGACAUGAGGAUCACCCAUGUGAGGAUAUGCAAAACCCAUAUAAAAAGGGAAAAAGCAGAAGGUACAAAAA [wbt round 1 mod 13] | 40.5 | 29.6
ACUAAUGAAGGAUAUACAAACAAAAAAAAAACAAAAAAAAAACAUGAGGAUCACCCAUGUAGAAGGUCAAAAAU [JR_Exc002_Sub1201] | 20 | 22
AAGAACAGAGGAUAUACAAAAUAAAAGAAAAGAAAGAAAGAACAUGAGGAUCACCCAUGUAGAAGGCUGAAGAA [Sonbef] | 24.1 | 28.2
AAUGGUGCAGGAUAUACAUGAGGAUCACCCAUGUAGAUCAGACAUAUGGUCGAAACAUGUAGAAGGGCACCAAA [Ex 3May 54] | 319 | 112
AAAAGACAUGAGGAUCACCCAUGUGAGGAUAUCGGAAAAGGAAAAAAAAAAAAGAAGACGAGAAGGCACACCAA | 33.8 | 42.5
AGGGAGUGAGGAUAUGCGAAAGAAAAAGAAGGAAAAAAAAAGCAGAAGGUACAUGAGGAUCACCCAUGUAAAAA [milkweed 7] | 16.9 | 26.5
AAAAAACAUGAGGAUCACCCAUGUAAGGAUAUGUAAAAUAAAAGAAAAAUAAAGAAAAGCAGAAGGUAUAUGAA [JL wbt mod 13] | 40.7 | 27.6
GAAAAAGGAGGAUAUACGAACAUGUCAAAAGACGUGAAGGGACAUGAGGAUCACCCAUGUAGAAGGCUUAAAAG [Mat - Exclusion 2 - JL mod - D94] | 15.7 | 37.4
GGUUGGCGAGGAUAUACAUGAGGAUCACCCAUGUGAGAGAAAAAAGUGAGAAAGAACAGUAGAAGGCGCUGACG [salish99-ex3-29] | 72.8 | 23.4
AGGAAACAUGAGGAUCACCCAUGUAAGGAUAUGAACGAAAAUAAAUAAAAAUAAAAGUUCAGAAGGUACGAAAA [66%, Wbt, 7] | 55.1 | 30.7
CAAAAGGAAGGAUAUACAUAAUAAAACGGGCGGGCACCUUAACAUGAGGAUCACCCAUGUAGAAGGUCCAAUAC [Onesmabe] | 18.6 | 15.7
AGGAUGUCAGGAUAUGCGUGAAGAAUAAAACAAAUAACAACGCAGAAGGGACAUGAGGAUCACCCAUGUUAAGA [May 46] | 68.3 | 45.2
AGCAAACAUGAGGAUCACCCAUGUGAGGAUAUGAACGAAAAUAAAUAAAAAUAAAAGUUCAGAAGGCACGAGCA [66%, Wbt, 26] | 35.6 | 30.4
AACAUACAUGAGGAUCACCCAUGUCAGGAUAUGCCGGGUUAGAAAAAAAAAAAAAAACGUAGAAGGGACAAAAA [Bilbo Confounded 3 - Jieux - Exclusion 1] | 62.2 | 62.4
AACAUGUCAGGAUAUAAAAGAAAAGAAAAGAAAGAAAAGAAUUAGAAGGGACAUGAGGAUCACCCAUGUAAGAA [EteRNA is fun!] | 28.9 | 33
AUGGUACAUGAGGAUCACCCAUGUCAGGAUAUCGGCUAAAACGUAAAAAAAAUAAAAGCGAGAAGGGACUGCUC [EX1 Malc#18 Mod 8 - Jieux - Exclusion 1] | 28.3 | 24
AACUGACAUGAGGAUCACCCAUGUCAGGAUAUGCUUCAUAAAAAAAAAAAAAAAUGAUGCAGAAGGGACAUGAA [Design 25 :P Sub-opt 1] | 14.1 | 13
AAAAACAUAGGAUAUACAUGAGGAUCACCCAUGUUAAAAUAAAGAAAGGGAGAAAUAAGUAGAAGGAUGAAAAA [Meechl Ex3 3] | 31.2 | 26.5
